# Experimental data from patent publication US20140087995A1 (published 2014).
# Numbered stars: 1 amine (or outer) side, 2 acyl side, 3 side chain; on linkers, the order of the positions; unused ones are H or OH. Bridge positions count the residues as written; N and C are the ends. Side chains are listed from the residue outwards. Ends that are not written are not given here. * marks the point of attachment. C20 diacid = O=C(O)CCCCCCCCCCCCCCCCCCC(=O)*; γGlu = O=C(O)[C@H](CCC(=O)[*:2])N[*:1]; AEEA = NCCOCCOCC(=O)O
# T1: rat amylin receptor (rat calcitonin receptor with rat RAMP 3) (rat, UniProt P32214 25-516; Q9JJ73 23-147)
# T1 construct: whole, on cells; Used as membranes prepared from the transfected cells; also called rAmylin-R; rAmylin
# T1 sequence (looked up) 1: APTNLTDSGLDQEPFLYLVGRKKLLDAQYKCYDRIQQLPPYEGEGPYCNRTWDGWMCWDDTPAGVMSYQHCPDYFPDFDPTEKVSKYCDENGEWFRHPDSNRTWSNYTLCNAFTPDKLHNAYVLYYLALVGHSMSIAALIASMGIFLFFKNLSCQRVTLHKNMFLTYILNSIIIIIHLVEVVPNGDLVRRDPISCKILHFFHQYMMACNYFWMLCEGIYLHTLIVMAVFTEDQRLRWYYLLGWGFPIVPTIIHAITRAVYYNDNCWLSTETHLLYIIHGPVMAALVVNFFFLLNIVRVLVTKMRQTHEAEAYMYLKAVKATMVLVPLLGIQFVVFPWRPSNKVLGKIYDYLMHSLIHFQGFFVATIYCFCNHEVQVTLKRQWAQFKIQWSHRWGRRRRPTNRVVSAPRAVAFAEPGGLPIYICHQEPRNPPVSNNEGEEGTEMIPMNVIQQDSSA
# T1 sequence (looked up) 2: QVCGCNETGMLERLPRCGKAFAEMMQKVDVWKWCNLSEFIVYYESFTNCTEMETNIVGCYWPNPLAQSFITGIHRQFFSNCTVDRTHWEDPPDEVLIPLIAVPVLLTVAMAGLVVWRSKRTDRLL
# T2: rat calcitonin receptor (rat, UniProt P32214 25-516)
# T2 construct: whole, on cells; Used as membranes prepared from the transfected cells; also called rCTR; rCT
# T2 sequence (looked up): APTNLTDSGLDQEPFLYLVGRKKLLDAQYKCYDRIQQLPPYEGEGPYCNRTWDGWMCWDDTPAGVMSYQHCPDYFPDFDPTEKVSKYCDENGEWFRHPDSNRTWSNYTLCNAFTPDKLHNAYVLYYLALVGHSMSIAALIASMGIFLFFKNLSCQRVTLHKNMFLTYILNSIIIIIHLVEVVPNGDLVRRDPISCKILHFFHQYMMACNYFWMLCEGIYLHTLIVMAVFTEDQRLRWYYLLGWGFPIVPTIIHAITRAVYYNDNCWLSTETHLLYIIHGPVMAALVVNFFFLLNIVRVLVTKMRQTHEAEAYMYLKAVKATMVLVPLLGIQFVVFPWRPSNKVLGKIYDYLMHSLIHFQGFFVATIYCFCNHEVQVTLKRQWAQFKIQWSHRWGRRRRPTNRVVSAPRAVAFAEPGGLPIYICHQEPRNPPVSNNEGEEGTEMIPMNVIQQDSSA
# T3: human calcitonin receptor (human, UniProt P30988 25-474)
# T3 construct: whole, on cells; Used as membranes prepared from the transfected cells; also called hCTR; hCT
# T3 sequence (looked up): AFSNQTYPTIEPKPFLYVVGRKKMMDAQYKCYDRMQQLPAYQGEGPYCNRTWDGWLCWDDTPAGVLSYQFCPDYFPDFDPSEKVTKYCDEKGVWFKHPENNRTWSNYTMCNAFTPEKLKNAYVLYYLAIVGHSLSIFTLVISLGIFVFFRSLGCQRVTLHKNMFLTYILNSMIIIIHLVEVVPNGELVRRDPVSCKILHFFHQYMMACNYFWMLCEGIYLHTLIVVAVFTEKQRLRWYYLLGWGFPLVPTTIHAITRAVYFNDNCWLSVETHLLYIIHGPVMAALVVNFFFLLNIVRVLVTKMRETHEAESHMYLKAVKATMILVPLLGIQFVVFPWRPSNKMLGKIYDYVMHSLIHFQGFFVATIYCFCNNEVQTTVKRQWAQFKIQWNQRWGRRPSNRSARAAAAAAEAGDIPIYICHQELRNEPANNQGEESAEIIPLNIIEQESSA
# T4: human calcitonin receptor (human, UniProt P30988 25-474)
# T4 sequence (looked up): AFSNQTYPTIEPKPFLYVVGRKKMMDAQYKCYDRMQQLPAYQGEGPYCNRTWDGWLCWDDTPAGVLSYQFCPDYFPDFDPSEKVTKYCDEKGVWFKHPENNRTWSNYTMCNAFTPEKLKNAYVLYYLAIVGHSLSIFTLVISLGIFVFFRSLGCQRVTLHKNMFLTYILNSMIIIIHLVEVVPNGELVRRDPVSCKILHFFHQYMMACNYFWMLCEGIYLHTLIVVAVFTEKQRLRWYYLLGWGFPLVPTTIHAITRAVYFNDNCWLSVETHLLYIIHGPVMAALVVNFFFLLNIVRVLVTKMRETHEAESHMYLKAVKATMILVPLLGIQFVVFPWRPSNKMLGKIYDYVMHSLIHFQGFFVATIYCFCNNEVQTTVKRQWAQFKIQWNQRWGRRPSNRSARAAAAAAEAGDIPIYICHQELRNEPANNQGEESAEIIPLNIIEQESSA
# Columns and labels:
# [1] = target: T1, rat amylin receptor (rat calcitonin …); assay: SPA competition with 125I-rat amylin, membranes with rat calcitonin receptor + rat RAMP3 (Assay VI)
# rat calcitonin receptor [2] = target: T2, rat calcitonin receptor; assay: SPA competition with 125I-calcitonin, membranes with rat calcitonin receptor (Assay VIII)
# [3] = target: T3, human calcitonin receptor; assay: ratio of binding IC50 at human calcitonin receptor to IC50 at human amylin receptor (reference)
# How it was run: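 IC₅₀ values were derived by one-site competition analysis of SPA counts. Cell membranes (35 ng/μL) with SPA beads were incubated with test compounds for 120 min at 25° C in Hepes buffer, pH 7.4, containing CaCl2, MgCl₂, OA and Tween20.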
# rat calcitonin receptor [4] = target: T2, rat calcitonin receptor; assay: ratio of binding IC50 at rat calcitonin receptor to IC50 at rat amylin receptor (reference)
# [5] = target: T4, human calcitonin receptor; assay: cell-based or functional assay
IC50 [1] [nM],IC50 (rat calcitonin receptor [2]) [nM],Ratio hCT/hAmylin binding [3],Ratio rCT/rAmylin binding (rat calcitonin receptor [4]),Ratio hCT/hAmylin funct. [5],Binder
2.7,216,100,79.8,,"{C20 diacid-γGlu}-GRCNTATCATQRLAHFLRHSSPNFGAIPSSTNVGSNTY-NH2 (disulfide 3-8; SMILES CC[C@H](C)[C@H](NC(=O)[C@H](C)NC(=O)CNC(=O)[C@H](Cc1ccccc1)NC(=O)[C@H](CC(N)=O)NC(=O)[C@@H]1CCCN1C(=O)[C@H](CO)NC(=O)[C@H](CO)NC(=O)[C@H](Cc1c[nH]cn1)NC(=O)[C@H](CCCNC(=N)N)NC(=O)[C@H](CC(C)C)NC(=O)[C@H](Cc1ccccc1)NC(=O)[C@H](Cc1c[nH]cn1)NC(=O)[C@H](C)NC(=O)[C@H](CC(C)C)NC(=O)[C@H](CCCNC(=N)N)NC(=O)[C@H](CCC(N)=O)NC(=O)[C@@H](NC(=O)[C@H](C)NC(=O)[C@@H]1CSSC[C@H](NC(=O)[C@H](CCCNC(=N)N)NC(=O)CNC(=O)CC[C@H](NC(=O)CCCCCCCCCCCCCCCCCCC(=O)O)C(=O)O)C(=O)N[C@@H](CC(N)=O)C(=O)N[C@@H]([C@@H](C)O)C(=O)N[C@@H](C)C(=O)N[C@@H]([C@@H](C)O)C(=O)N1)[C@@H](C)O)C(=O)N1CCC[C@H]1C(=O)N[C@@H](CO)C(=O)N[C@@H](CO)C(=O)N[C@H](C(=O)N[C@@H](CC(N)=O)C(=O)N[C@H](C(=O)NCC(=O)N[C@@H](CO)C(=O)N[C@@H](CC(N)=O)C(=O)N[C@H](C(=O)N[C@@H](Cc1ccc(O)cc1)C(N)=O)[C@@H](C)O)C(C)C)[C@@H](C)O, Analogue of human amylin extended by Gly at the N-terminus; disulfide and C-terminal amide as told for h-amylin; also called compound 99)"
,,,,15.4,"K([AEEA-γGlu-C20 diacid])CNTATCATQRLAHFLRHSSPNFGAIPSSTNVGHNTY-NH2 (disulfide 2-7; N-terminus assumed; SMILES CC[C@H](C)[C@H](NC(=O)[C@H](C)NC(=O)CNC(=O)[C@H](Cc1ccccc1)NC(=O)[C@H](CC(N)=O)NC(=O)[C@@H]1CCCN1C(=O)[C@H](CO)NC(=O)[C@H](CO)NC(=O)[C@H](Cc1c[nH]cn1)NC(=O)[C@H](CCCNC(=N)N)NC(=O)[C@H](CC(C)C)NC(=O)[C@H](Cc1ccccc1)NC(=O)[C@H](Cc1c[nH]cn1)NC(=O)[C@H](C)NC(=O)[C@H](CC(C)C)NC(=O)[C@H](CCCNC(=N)N)NC(=O)[C@H](CCC(N)=O)NC(=O)[C@@H](NC(=O)[C@H](C)NC(=O)[C@@H]1CSSC[C@H](NC(=O)[C@@H](N)CCCCNC(=O)COCCOCCNC(=O)CC[C@H](NC(=O)CCCCCCCCCCCCCCCCCCC(=O)O)C(=O)O)C(=O)N[C@@H](CC(N)=O)C(=O)N[C@@H]([C@@H](C)O)C(=O)N[C@@H](C)C(=O)N[C@@H]([C@@H](C)O)C(=O)N1)[C@@H](C)O)C(=O)N1CCC[C@H]1C(=O)N[C@@H](CO)C(=O)N[C@@H](CO)C(=O)N[C@H](C(=O)N[C@@H](CC(N)=O)C(=O)N[C@H](C(=O)NCC(=O)N[C@@H](Cc1c[nH]cn1)C(=O)N[C@@H](CC(N)=O)C(=O)N[C@H](C(=O)N[C@@H](Cc1ccc(O)cc1)C(N)=O)[C@@H](C)O)C(C)C)[C@@H](C)O, Synthetic acylated analogue of human amylin; also called compound 80)"
0.172,14.7,51.6,85.4,,"K([γGlu-C20 diacid])CNTATCATQRLAHFLRHSSPNFGAIPSSTNVGPNTY-NH2 (disulfide 2-7; N-terminus assumed; SMILES CC[C@H](C)[C@H](NC(=O)[C@H](C)NC(=O)CNC(=O)[C@H](Cc1ccccc1)NC(=O)[C@H](CC(N)=O)NC(=O)[C@@H]1CCCN1C(=O)[C@H](CO)NC(=O)[C@H](CO)NC(=O)[C@H](Cc1c[nH]cn1)NC(=O)[C@H](CCCNC(=N)N)NC(=O)[C@H](CC(C)C)NC(=O)[C@H](Cc1ccccc1)NC(=O)[C@H](Cc1c[nH]cn1)NC(=O)[C@H](C)NC(=O)[C@H](CC(C)C)NC(=O)[C@H](CCCNC(=N)N)NC(=O)[C@H](CCC(N)=O)NC(=O)[C@@H](NC(=O)[C@H](C)NC(=O)[C@@H]1CSSC[C@H](NC(=O)[C@@H](N)CCCCNC(=O)CC[C@H](NC(=O)CCCCCCCCCCCCCCCCCCC(=O)O)C(=O)O)C(=O)N[C@@H](CC(N)=O)C(=O)N[C@@H]([C@@H](C)O)C(=O)N[C@@H](C)C(=O)N[C@@H]([C@@H](C)O)C(=O)N1)[C@@H](C)O)C(=O)N1CCC[C@H]1C(=O)N[C@@H](CO)C(=O)N[C@@H](CO)C(=O)N[C@H](C(=O)N[C@@H](CC(N)=O)C(=O)N[C@H](C(=O)NCC(=O)N1CCC[C@H]1C(=O)N[C@@H](CC(N)=O)C(=O)N[C@H](C(=O)N[C@@H](Cc1ccc(O)cc1)C(N)=O)[C@@H](C)O)C(C)C)[C@@H](C)O, Analogue of human amylin; disulfide and C-terminal amide as told for h-amylin; also called compound 67)"
